Measurements reported in US12698507B2, “Methods and compositions for conferring and/or enhancing herbicide tolerance using protoporphyrinogen IX oxidase of various cyanobacteria or variant thereof” (FarmHannong Co., Ltd., priority 2019, dated 2026).
Numbering of substitutions follows the chain as printed. Numbers in names are those of the source.

B1: CyPPO19 R89A + V165C + F360I: variant of CyPPO19 PPO protein (SEQ ID NO: 1) (protein)
chain: MSEVDVAIVGGGLSGLSLAWRLQQSAPQYSVVLLEASDRLGGNITTQTAEGFVWELGPNSFAPTPALLQLIAEVGLQSELIRGDRHLPAYIYWRGQLYPLQPTRPLALATSNLLSPWGKVRAALGALGFVPPYLGSGDESVNSFFRRHLGQEVAERLVAPFVSGCYAGDPQQLSAAAAFRRIAQLEKLGGGLIAGALHLRRQQAPKPKPPTSVQMRPGELGSFKEGLAALPRAIAQQLKAPIHLQTPVQEITPDPKGGYLLRSGEQTWRARSVVLATPAYQTAELVAPFQPAIARVLATIPYPTVACVVLAYPAGLGRSVRPGFGVLIPRSQGIRTLGTIWSSCLFPQRTPAGWQVFTSIIGGATDPDLASLSEEAIVQQVQQDLNRLLDLPAAKARLLGMKVWRRAIPQYMVGYPEQWQQVTHALSQTPGLFLCSNYAEGVALGDRVEHGNRTAAAVAAYLSGGQP
modifications: Synthetic_PPO of Thermosynechococcus elongatus PKUAC-SCTE542 (comprising GenBank No. CP032152.1)
B2: CyPPO19 R89A + A167C + F360L: variant of CyPPO19 PPO protein (SEQ ID NO: 1) (protein)
chain: B1 chain with C165V, A167C, I360L
modifications: Synthetic_PPO of Thermosynechococcus elongatus PKUAC-SCTE542 (comprising GenBank No. CP032152.1)
B3: CyPPO19 R89A + V305M + F360V: variant of CyPPO19 PPO protein (SEQ ID NO: 1) (protein)
chain: B1 chain with C165V, V305M, I360V
modifications: Synthetic_PPO of Thermosynechococcus elongatus PKUAC-SCTE542 (comprising GenBank No. CP032152.1)
B4: CyPPO19 R89A + V305M + F360I: variant of CyPPO19 PPO protein (SEQ ID NO: 1) (protein)
chain: B1 chain with C165V, V305M
modifications: Synthetic_PPO of Thermosynechococcus elongatus PKUAC-SCTE542 (comprising GenBank No. CP032152.1)
B5: CyPPO19 R89A + A167L + F360T: variant of CyPPO19 PPO protein (SEQ ID NO: 1) (protein)
chain: B1 chain with C165V, A167L, I360T
modifications: Synthetic_PPO of Thermosynechococcus elongatus PKUAC-SCTE542 (comprising GenBank No. CP032152.1)
B6: CyPPO19 R89A + V165C + F360V: variant of CyPPO19 PPO protein (SEQ ID NO: 1) (protein)
chain: B1 chain with I360V
modifications: Synthetic_PPO of Thermosynechococcus elongatus PKUAC-SCTE542 (comprising GenBank No. CP032152.1)
B7: CyPPO19 R89A + V165S + F360M: variant of CyPPO19 PPO protein (SEQ ID NO: 1) (protein)
chain: B1 chain with C165S, I360M
modifications: Synthetic_PPO of Thermosynechococcus elongatus PKUAC-SCTE542 (comprising GenBank No. CP032152.1)
B8: CyPPO19 R89A + A167I + F360V: variant of CyPPO19 PPO protein (SEQ ID NO: 1) (protein)
chain: B1 chain with C165V, A167I, I360V
modifications: Synthetic_PPO of Thermosynechococcus elongatus PKUAC-SCTE542 (comprising GenBank No. CP032152.1)
B9: CyPPO18 R89A + V165S + V305M + F360I: variant of CyPPO18 PPO protein (SEQ ID NO: 3) (protein)
chain: MIEVDVAIVGGGLSGLSVAWRLQRSAPHYSGVLLEASDRLGGNITTQAAEGFVWELGPNSFAPTPALLQLIAEVGLHSELIRGDRHLPAYIYWRGELYPLEPTRPLALATSNLLSPWGKVRAALGALGFVPPYLGSGDESVDSFFRRHLGQEVAERLVAPFVSGSYAGDPQQLSAAAAFRRIAQLEKLGGSLIAGALRLRRQQPPQPKPPAQVQMRPGELGSFREGLAALPRAIAQQLKAPLHLQTPVEAITPEPKGGYLLRSGEQTWHARSVVLATPAYQSAELVAPFQPAIARALATIPYPTMACVVLAYPAGLGRSVRPGFGVLVPRGQGIRTLGTIWSSCLFPQRTPAGWQVFTSIIGGATDPDLASLREEAIVEQVQQDLTRLLDLPAAKARLLGMKVWRRAIPQYIVGYPQQWQQLTHALTQTPGLFLCSNYAEGVALGDRVEHGNRTAAAVAAYLAGGQS
modifications: Synthetic_PPO of Thermosynechococcus vulcanus NIES-2134 (BAY51976)

Test system: PPO-deficient BT3 E. coli (ΔPPO)
Experiment: PPO-inhibiting herbicide tolerance test of PPO variants in E. coli (growth on herbicide-containing LB agar)
Assay type: cell-based
Details: LB agar with 0 to 2,000 μM herbicide, 37° C., dark, 16-20 hours
Summary of the method: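 PPO-deficient BT3 E. coli expressing each variant from pET303 were diluted to OD600=0.5, then 10-fold serially, and spotted on LB-ampicillin agar with 0 to 2,000 μM herbicide. After 16-20 h at 37° C. in the dark, growth relative to wild type was scored from '−' (equivalent) to '+' per 10-fold resistance, max '+++++'.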

[1] = CyPPO19 variants in BT3 (ΔPPO) E. coli
[2] = CyPPO18 variants in BT3 (ΔPPO) E. coli

| Molecule | tolerance level relative to wild type, Carfentrazone [1] | tolerance level relative to wild type, Flumioxazin [1] | tolerance level relative to wild type, Fomesafen [1] | tolerance level relative to wild type, Oxyfluorfen [1] | tolerance level relative to wild type, Saflufenacil [1] | tolerance level relative to wild type, Sulfentrazone [1] | tolerance level relative to wild type, Tiafenacil [1] | tolerance level relative to wild type, Carfentrazone [2] | tolerance level relative to wild type, Flumioxazin [2] | tolerance level relative to wild type, Fomesafen [2] | tolerance level relative to wild type, Oxyfluorfen [2] | tolerance level relative to wild type, Saflufenacil [2] | tolerance level relative to wild type, Sulfentrazone [2] | tolerance level relative to wild type, Tiafenacil [2] |
| --- | --- | --- | --- | --- | --- | --- | --- | --- | --- | --- | --- | --- | --- | --- |
| B1 | + (‘+’ per each 10-fold resistance) | ++++ (‘+’ per each 10-fold resistance) | ++ (‘+’ per each 10-fold resistance) | ++ (‘+’ per each 10-fold resistance) | ++++ (‘+’ per each 10-fold resistance) | +++ (‘+’ per each 10-fold resistance) | ++++ (‘+’ per each 10-fold resistance) | – | – | – | – | – | – | – |
| B2 | ++ (‘+’ per each 10-fold resistance) | ++++ (‘+’ per each 10-fold resistance) | ++ (‘+’ per each 10-fold resistance) | +++ (‘+’ per each 10-fold resistance) | ++++ (‘+’ per each 10-fold resistance) | ++++ (‘+’ per each 10-fold resistance) | ++++ (‘+’ per each 10-fold resistance) | – | – | – | – | – | – | – |
| B3 | + (‘+’ per each 10-fold resistance) | +++ (‘+’ per each 10-fold resistance) | + (‘+’ per each 10-fold resistance) | + (‘+’ per each 10-fold resistance) | +++ (‘+’ per each 10-fold resistance) | ++ (‘+’ per each 10-fold resistance) | +++ (‘+’ per each 10-fold resistance) | – | – | – | – | – | – | – |
| B4 | + (‘+’ per each 10-fold resistance) | +++ (‘+’ per each 10-fold resistance) | + (‘+’ per each 10-fold resistance) | + (‘+’ per each 10-fold resistance) | +++ (‘+’ per each 10-fold resistance) | ++ (‘+’ per each 10-fold resistance) | +++ (‘+’ per each 10-fold resistance) | – | – | – | – | – | – | – |
| B5 | ++ (‘+’ per each 10-fold resistance) | ++++ (‘+’ per each 10-fold resistance) | ++ (‘+’ per each 10-fold resistance) | ++ (‘+’ per each 10-fold resistance) | ++++ (‘+’ per each 10-fold resistance) | +++ (‘+’ per each 10-fold resistance) | ++++ (‘+’ per each 10-fold resistance) | – | – | – | – | – | – | – |
| B6 | + (‘+’ per each 10-fold resistance) | ++++ (‘+’ per each 10-fold resistance) | + (‘+’ per each 10-fold resistance) | + (‘+’ per each 10-fold resistance) | ++++ (‘+’ per each 10-fold resistance) | +++ (‘+’ per each 10-fold resistance) | ++++ (‘+’ per each 10-fold resistance) | – | – | – | – | – | – | – |
| B7 | + (‘+’ per each 10-fold resistance) | ++++ (‘+’ per each 10-fold resistance) | +++ (‘+’ per each 10-fold resistance) | +++ (‘+’ per each 10-fold resistance) | ++++ (‘+’ per each 10-fold resistance) | +++ (‘+’ per each 10-fold resistance) | ++++ (‘+’ per each 10-fold resistance) | – | – | – | – | – | – | – |
| B8 | + (‘+’ per each 10-fold resistance) | +++++ (until ‘+++++’ as maximal resistance) | +++ (‘+’ per each 10-fold resistance) | +++ (‘+’ per each 10-fold resistance) | +++++ (until ‘+++++’ as maximal resistance) | +++++ (until ‘+++++’ as maximal resistance) | +++++ (until ‘+++++’ as maximal resistance) | – | – | – | – | – | – | – |
| B9 | – | – | – | – | – | – | – | ++ (‘+’ per each 10-fold resistance) | +++++ (until ‘+++++’ as maximal resistance) | +++++ (until ‘+++++’ as maximal resistance) | ++ (‘+’ per each 10-fold resistance) | +++++ (until ‘+++++’ as maximal resistance) | +++++ (until ‘+++++’ as maximal resistance) | +++++ (until ‘+++++’ as maximal resistance) |
